Assay results from US20230152323A1 (NORDIC BIOSCIENCE A S, published 2023).
No end group written: not given here.

Legend:
[1] = target: T1, Non-sense coating peptide VPKDLPPDTT-biotin; assay: ELISA, peptide coated on a streptavidin plate
T1 construct: Held on streptavidin-coated plates; also called non-sense biotinylated coating peptide
T1 peptide: VPKDLPPDTT-biotin
Description: The target sequence was used as the standard peptide ([…]; SEQ ID NO: 1). A biotinylated peptide ([…]-K-biotin; SEQ ID NO:7) was included as a coating peptide with addition of a lysine residue to the C-terminal end to ensure biotin linking. The specificity of the antibody was tested by including an elongated standard peptide with an additional amino acid added to the N-terminal of the target peptide sequence ([…]; SEQ ID NO: 2), a truncated standard peptide with a removal of the first N-terminal amino acid ([…]; SEQ ID NO: 3) as well as a non-sense standard peptide ([…]; SEQ ID NO: 4) and a non-sense biotinylated coating peptide ([…]-biotin; SEQ ID NO: 5) in the assay validation. Four peptides (Von Willebrand factor, glucagon, SPARC-like protein 1 and ADAMTS15) with one amino acid mismatch compared to the first six amino acids in the target sequence were also included to further test the antibody specificity. The immunogenic peptide ([…]-GGC-KLH; SEQ ID NO: 6) was generated by covalently cross-linking the standard peptide to Keyhole Limpet Hemocyanin (KLH) carrier protein using Succinimidyl 4-(N-maleimidomethyl)cyclohexane-1-carboxylate, SMCC (Thermo Scientific, Waltham, MA, USA, cat.no. 22336). Glycine and cysteine residues were added at the C-terminal end to ensure right linking of the carrier protein. […]

[2] = target: T2, SPARC-like protein 1 (SLP1) peptide LLLRDFKKNY (human); assay: competitive SPARC-M ELISA, peptide as competitor
T2 construct: A peptide was tested, not the whole protein
T2 peptide: LLLRDFKKNY
Description: (§1) The specificity of the antibody was tested by including an elongated standard peptide with an additional amino acid added to the N-terminal of the target peptide sequence ([…]; SEQ ID NO: 2), a truncated standard peptide with a removal of the first N-terminal amino acid ([…]; SEQ ID NO: 3) as well as a non-sense standard peptide ([…]; SEQ ID NO: 4) and a non-sense biotinylated coating peptide ([…]-biotin; SEQ ID NO: 5) in the assay validation. Four peptides (Von Willebrand factor, glucagon, SPARC-like protein 1 and ADAMTS15) with one amino acid mismatch compared to the first six amino acids in the target sequence were also included to further test the antibody specificity. The immunogenic peptide ([…]-GGC-KLH; SEQ ID NO: 6) was generated by covalently cross-linking the standard peptide to Keyhole Limpet Hemocyanin (KLH) carrier protein using Succinimidyl 4-(N-maleimidomethyl)cyclohexane-1-carboxylate, SMCC (Thermo Scientific, Waltham, MA, USA, cat.no. 22336). Glycine and cysteine residues were added at the C-terminal end to ensure right linking of the carrier protein.
(§2) A 96-well streptavidin-coated microtiter plate was coated with 1.1 ng/mL biotinylated coating peptide dissolved in assay buffer (50 mM Tris-BTB, 4 g/L NaCl, pH 8.0) and incubated for 30 min. at 20° C. in darkness shaking (300 rpm). Twenty µL standard peptide or pre-diluted serum (1:4) were added to appropriate wells, followed by the addition of 100 µL monoclonal antibody dissolved in assay buffer to a concentration of 14 ng/mL to each well and incubated 1 hour at 20° C. in darkness shaking (300 rpm). One hundred µL of goat anti-mouse POD-conjugated IgG antibody (Thermo Scientific, Waltham, MA, USA, cat. #31437) diluted 1:6000 in assay buffer was added to each well and incubated 1 hour at 20° C. in darkness shaking. All incubation steps were followed by five washes in washing buffer (20 mM Tris, 50 mM NaCl, pH 7.2). Finally, 100 µL tetramethylbenzidine (TMB) (cat. 438OH, Kem-En-Tec Diagnostics, Denmark) was added to each well and the plate was incubated for 15 minutes at 20° C. in darkness shaking. The enzymatic reaction was stopped by adding 0.18 M H₂SO₄ and absorbance was measured at 450 nm with 650 nm as reference. A calibration curve was plotted using a 4-parameter logistic curve fit. Data were analyzed using the SoftMax Pro v.6.3 software.

[3] = target: T3, ADAMTS15 (A15) peptide LLARDQCNLH (human); assay: competitive SPARC-M ELISA, peptide as competitor
T3 construct: A peptide was tested, not the whole protein
T3 peptide: LLARDQCNLH
Description: as §1, §2

[4] = target: T4, Von Willebrand factor (VWF) peptide LLARDCQDHS (human); assay: competitive SPARC-M ELISA, peptide as competitor
T4 construct: A peptide was tested, not the whole protein
T4 peptide: LLARDCQDHS
Description: as §1, §2

[5] = target: T5, Glucagon (GCG) peptide LAARDFINWL (human); assay: competitive SPARC-M ELISA, peptide as competitor
T5 construct: A peptide was tested, not the whole protein
T5 peptide: LAARDFINWL
Description: as §1, §2

[6] = target: T6, Recombinant human SPARC, full-length, uncleaved (human, UniProt P09486 18-303); assay: competitive SPARC-M ELISA on recombinant SPARC incubated without protease
T6 construct: Incubated in MMP buffer without protease and then measured in the SPARC-M ELISA; also called recombinant full-length SPARC; osteonectin
T6 sequence (looked up): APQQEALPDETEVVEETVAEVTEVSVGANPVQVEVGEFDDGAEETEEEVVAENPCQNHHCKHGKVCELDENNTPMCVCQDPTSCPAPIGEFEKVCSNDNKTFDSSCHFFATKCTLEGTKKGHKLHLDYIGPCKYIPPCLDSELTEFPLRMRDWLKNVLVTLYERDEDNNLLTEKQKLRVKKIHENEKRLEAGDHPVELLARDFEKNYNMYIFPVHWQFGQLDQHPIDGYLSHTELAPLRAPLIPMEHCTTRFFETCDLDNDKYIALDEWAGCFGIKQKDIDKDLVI

[7] = target: T7, Standard peptide LLARDFEKNY (human); assay: preliminary competitive ELISA, hybridoma supernatant, 10 ng/mL biotinylated coating peptide
T7 construct: Synthetic peptide from Genscript with a free N-terminus; also called calibration peptide
T7 peptide: LLARDFEKNY
Description: The reactivity of the monoclonal antibody was evaluated by displacement using human serum samples and the standard peptide ([…]; SEQ ID NO: 1) in a preliminary ELISA using 10 ng/mL biotinylated coating peptide on streptavidin-coated microtiter plates (Roche, Basel, Switzerland, cat. #11940279) and the supernatant from the antibody producing monoclonal hybridoma cells. The clone with the best reactivity towards the standard peptide was purified using protein-G-columns according to the manufacturer’s instructions (GE Healthcare Life Sciences, Little Chalfont, UK, cat. #17-0404-01 ).

- binding result [1]: no binding
- binding result [2]: no binding
- binding result [3]: no binding
- binding result [4]: no binding
- binding result [5]: no binding
- binding result [6]: no binding
- binding result [7]: binds
B1: SPARC-M monoclonal antibody (antibody, mouse IgG1, kappa, V domains shown)
VH: EVKLVESGGGLVKPGGSLKLSCAASGFTFSRNAMSWVRQTPEKRLEWVASISTSDNTYYPDSVKGRFTISKDNARNILYLQMSSLRSEDTAMYYCASGFDVGAYWGQGTLVTVSA
VL: DVLMTQTPLSLPVSLGDQASISCRSSQSIVHSNGNTYLEWYLQKPGQSPKLLIYKVSNRFSGVPDRFSGSGSGTDFTLKISRVDTEDLGVYYCFQGSHVPLTFGAGTKLELKR
notes: also called the antibody; the selected antibody
